From the nanobody polyreactivity screen of Harvey et al. (2022)

Assay: yeast display, Sf9 membrane polyspecificity reagent, FACS + sequencing; frameworks hold sequencing errors
Outline: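 Nanobodies came from a synthetic yeast display library in Saccharomyces cerevisiae BJ5465, induced with galactose for 36–48 hours and stained for 1 hour at 4 °C with 10% biotinylated, detergent-solubilized Sf9 membrane reagent. Cells were enriched on streptavidin microbeads and then FACS-sorted, with low and high (top ~1%) gates set on anti-HA fluorescence for expression and streptavidin fluorescence for reagent binding. Each polyreactivity label reflects the gate a clone came from. Genes were amplified by colony PCR, sequenced by MiSeq 2 × 250 and filtered by CDR length.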

Sequence	polyreactivity (PSR sort gate)
QVQLVESGGGLVQAGGSLRLSCAASGSTFKSYAMGWYRQAPGKERELVAAISYRGGSTYYADSVKGRFTISRDNAKNTVYLQMNSLKPEDTAVYYCAAVKLYSYYYWGQGTQVTVSS	high polyreactivity
QVQLVESGGGLVQAGGSLRLSCAASGRIFVYNAKGWYRQAAGKERELVAAISYTGGTTYYADSVKGRFTISRDNAKKTVYLQMKSLKPEDTAVFFCAALWWWNRQVRYEYWGQGTQVTVSS	low polyreactivity
QVQLVESGGGLVQAGGSLRLSCAASGNIFYRNGMGWYRQAPGKEREFVAAISRRGGSTYYADSVKGRFTISRDNAKNTVYLQMNSLKPEDTAVYYCATRYWPTNKGEYWGQGTQVTVSS	high polyreactivity
QVQLVESGGGLVQAGGSLRLSCAASGSTFDYYAMGWYRQAPGKERELVAAISRTGGRTYYADSVKGRFTISRDNAKNTVYLQMNSLKPEDTAVYYCATRNGRQYSVSYRYYYWGQGTQVTVSS	low polyreactivity
QVQLQESGGGLVQAGGSLRLSCAASGNIVDADIMGWYRQAPGKERELVASITDGGSTNYADSVKGRFTISRDNAKNTVYLQMNSLKPEDTAVYYCAAIAYPDIPTYFDYDSEYFYWGQGTQVTVSS	low polyreactivity
QVQLVESGGGLVQAGGSLRLSCAASGYIVRNAMGWYRQAPGKERELVAAISRRGGSTYYADSVKGRFTISRDNAKNTVYLQMNSLKPEDTAVYYCAKDKVIPSFDADYYYWGQGTQVTVSS	high polyreactivity
QVQLVESGGGLVQAGGSLRLSCAASGSTFDRNVMGWYRQAPGKERELVAAISRVSSTNYADSVKGRFTISRDNAKNTVYLQMNSLKPEDTAVYYCNARRESYYQRYRVDYWGQGTQVTVSS	low polyreactivity
QVQLVESGGGLVQAGGSLRLSCAASGFTFNPYAMGWYRQAPGKERELVAAITSGGSTNYADSVKGRFTISRDNAKNTVYLQMNSLKPEDTAVYYCAADSRGYGDDSWGQGTKVTVSS	low polyreactivity
LVQLVESGGGLLQAGGSPRLSCAASGFNFRGYAMGWYRQAPRKERELVAAINSGGSTNYADSVKGRFTISRDNAKNTVYLQMNSLNPEDTAVSYCAARVKTSYRYLRTYNYWGQGTQVTVSS	high polyreactivity
QVQHEESGGGLVQAGGSLRLSCAASGITINFYDMGRYRQARGKERELGAAITASGGGSTYYADSVKGRFTISRDNAKNTVYLQMNSLKPEYTAVYYCNADSTGSFYTFDYWGQGTQVTVSS	low polyreactivity
QVQLVESGGGLVQAGGSLRLSCAASGSNFRYNAMGWYRQAPGKERALVAAISGRGTSTYYADSVKGRFTISRDNAKNTVYLQMNSLKPEDTAVYYCAAVYFRTFLVEYYYWGQGTQVTVSS	high polyreactivity
QVQLVESGGGLVQAGGSLRLSCAASGRIFGGYTMGWYRQAPGKEREFVAAITSSGGSTYYADSVKGRFTISRDNAKNTVYLQMYSLKPEETAVYYCAVDDYYYDYDYWGQGTQVTVSS	low polyreactivity
QVQLVESGGGSVQAGGSLRLSCAASGITSYGYAMGWYRQAPGKERDLVASISRTGGNTYADSVKGRFTISRDNAKNTVYLQMNSLKPEDTAVYYCNAGRSWDYWYGYDYWGQGTQVTVSS	low polyreactivity
QVQLVESGGGLVQAGGSLRLSCAASGRTFTRNAMGWYRQAPGKERELVAVITSSGRTNYADSVKGRFTISRDNAKKTVYLQMNSLKPEDTAVYYCNKVSARYPYPLYDYWGQGTQVTVSS	high polyreactivity
QVQLVESGGGLVQAGGSLRLSCAASGFTFAHNAMGWYRQAPGKERELVAAISSRGGRTFYADSVKGRFTISRDNAKNTVYLQMNSLKPEDTAVYYCNRVRSFQYDYWGQGTQVTVSS	high polyreactivity
QVQLVESGGGLVQAGGSLRLSCAASGGIFGVYAMGWYRQAPGKERELVAAISQSDTSTYYADSVKGRFTISRDNAKNTVYLQMNSLKPEDTAVYYCAAEYYLDYYTWFDYWGQGTQVTVSS	high polyreactivity
QVQLVESGGGLLQAGGSLRLSCAASGFTFSTNAMGWYRQAPGKERDLVAAITWRGGSTYYADSVKGRFTISRDIAKKTVYVQLNSLKPEDTAVYYCAGRSRGSHVSYYKKFDYWGQGTHVTVSS	low polyreactivity
QVQLVESGGGLVQAGGSLRLSCAASGSIFVYNAMGWYRQAPGKERELVAAISWSGGRTYYADSVKGRFTISRDNAKNTVYIQMNSLKPEDTAVYYCAARGPTRVPYNYWGQGTQVTVSS	high polyreactivity
QVHLVESGGGLVQAGGSLRLSCAASGFTFSTYTMGWYRQSPGKERELVAAIRRSGDSTYYADSVKGRFTISRDNAKNTVYLQMNSLKPVDTAVYYCNAVLYRFERFDYWGQGTQVTVSS	high polyreactivity
QVQLVESGGGVVQAGGSLRLSCAASGRIFVYYMGWYRQAPGKERVLVAAISVGGGSTYYADSVKGRFTISRDHAKNTVYLQMNSLKPEDTAVYYCAAAWSNYFGDPSYYWGQGTQVTVSS	low polyreactivity
QVQLVESGGRLFQAGGSLRLSCAASGFTTSAYTKGWYRQAPGKERELVAVISARGGSTSYADSVKGRFTISRDNAKNPVYLQMKCRKPEDTAVFYCAARGRAHWHYDYWGHGTQVTVSS	high polyreactivity
QVQLQESGGGLVQGGGSLRLSCAASGSIYRSWYMGWYRQAPGKERELVASITEGATTNYAYSVKAALPLAAITRNTVYLQMDSMKPEDTAVYYRAASFGSTYDLVYWGQGTQVTVSS	high polyreactivity

Sequence	polyreactivity (PSR sort gate)
QVQLVESGGGLVQAGGSLRLSCAASGGTFQINAMGWYRQAPGKEREMVAAISAAGGRTYYADSVKGRFTISRDNANNTVYLQMNSLKPEDTAVSYCAADWSYQVGRHQYFPMRYDYWGQGTQVTVSS	high polyreactivity
QVQLVESGGGLVQAGGSLRLSCAASGYIFHLYAMGWYRQAPGKERELVAAISSGGRTYYADSVKGRFTISRDNAKNTVYLQMNSLKPEDTAVYYCAVRSYVNTAVGYYYWGQGTQVTVSS	high polyreactivity
QVQLVESGGGLVQAGGRLRLSCAASGSICEPYVMGWYIQAPGKERELVAAIRQTGGSTYYADSVKGRFTISRDNAKNTVYLQMNSLKPEDTAVYYCNAEQKPSGLYDYRGVEGEMGYWGQGTQVTVSS	low polyreactivity
QVHLVESGGALVQAGGSLRLSCAASGNTFNANAMGWYRQAPGKERELVAVISANGGRTYYADSVKGRFTISRDNAKNTVYLQMNSLIPEDTAVYYCAADSSGEYPGGYWGQGTQVTVSS	low polyreactivity
QVQLVESGGGLVQAGASLRLSCAASGRIFNIYALGWYRQAPGKERELVADITSGGTTYADSVKWRFTISRDNAKNTVYLQMNSLKPEDTAVYYCAAVYRYRNRRDYDYWGQGTQVTVSS	high polyreactivity
QVQLVESGGGLVQAGGSLRLSCAASGSTFTRYAMGWYRQAPGKERELVASISRSGNTYYADSVKGRFTISRDNAKNTVYLQMNSLKPEDTAVNYCAAKRKSYYSYNFDYWGQGTQVTVSS	high polyreactivity
QVQLVESGGGLVQAGGSLRLSCAASGRTFEKNAMGWYRQAPGKERELVASITSVGSTDYADSVKGRFTISRDNAKNTVYLQMNSLKPEDTAVYYCAKTLGSQNYDFDYWGQGTQVTVSS	low polyreactivity
QVQLVESGGGLVQAGGSLRLSCAASGFTFSNYAMGWYRQAPGKERELVAAITGSGGSTFYADSVKGRFTISRDNAKNTVYLQMNSLKPEDTAVYYCAAYYWSSKYDYWGQGTQVTVSS	high polyreactivity
QVQLVESGGGLVQAGGSLSFSCAAPGSIFPRYAMGWYRQAPGKERELVAAISRSGGSTYYADSVKGRFTISRDNAKNSVYLQMNSLKPEDTAVYYCATDKVSHRRYDYWGQGTQVTVSS	high polyreactivity
QVQLVESGGGLVQAGGSLRLSCAASGSTFSTYAMGWYRQAPGKERELVAAIRSGGSTYYADSVKGRFTISRDNAKNTVYLQMNSLKPEDTAVYYCAAKPRNYSYRYYYWGQGTQVTVSS	high polyreactivity
QVQLVESGGGLVQAGGSLRLSCAASGRTFYFYVMGWYRQAPGKERELVARISWSGGSTYYADSVKGRFTISRDNAKNTVYLQMNSLKPEDTAVYYCARQYKYPSSGEYDSWGQGTQVSVSS	low polyreactivity
QVQLLESGGRLVQAGGSLRLSCAASGFTFGVNAMGWYRQAPGKERELVAAITSRGGSTYYADSVKGRFTISRDNAKNTVYLQMNSLKPEDTAVYYCAALGRGYFYGYRYDHWGQGTQVSVSS	high polyreactivity
QVHLVESGGGLVQAGGSLRLSCAASGRTFRYYAMGWYRQAPGKERELVASISSTGGNTYYADSVKGRFTISRDNAKNTVYLQMNSLKPEDTAVYYCAAGAWTRGQYYYWGQGTQVTVSS	high polyreactivity
QVQLVESGGGLVQAGGSLRLSCAASGFIFRYYAMGWYRQAPGKERELVARIRSSGGSTYYADSVKGRFTISRDNAKKTVYLKMNSLKPEDTAVYYCDTVSYITYYGGYGYWGQGTQVTVSS	high polyreactivity
QVQLVESGGGLVQAGGSLRLSCAASGFIFAFYDIGWYRQAPGKERELVAAISWGGSTYYADSVKGRFTISRDNAKNTVYLQMNSLKPEDTAVYYCAARLSRSYRYGYWGQGTQVTVSS	high polyreactivity
QVQLVESGGGLVQAGGSLRLSCAASGRTLSKNAMGWYRQAPGKERELVATISSVGRTNYADSVKGRFTISRDNAKNTVYLQMNSLKPVDTAVYYCAARRFRGSYYWGLGTQVTVSS	high polyreactivity
QVQLVESGGGLVQAGGSLRLICAASGRTFGGYAMASYRQAPGKERELVAAITYSGSSTYYADSVKGRFTISRDNAKNTVYLQMNSLKPEDTAVYYCAARGRQTWYNYWGQGTQVTVSS	high polyreactivity
QVQLVESGGGLVQAGGSLRLSCAASGFTFGSNAMGWYRQAPGKERELVAAIRSRGGSTYYADSVKGRFTISRDNAKNTVYLQMNSLKPEDTAVYYCAADFIGRDYDYWGQGTQVTVSS	high polyreactivity
QVQLVESGGGLVQAGGSLRLSCAASGFIFYVKAMGWYRKAPGKERELVASITNGGSTTYADSVKGRFTISRDNAKNTDDLQMNSLKPEDTAVYYCHASGLDFSYFDEFNYWGQGTQVTVSS	low polyreactivity
QVQLVESGGGLVQAGGSLRLSCAASGSIFTPYAMVWYRQAPGKERELVATISWRGGSTYADSVKGRFTISRDNAKNTVYLQMNSLKPEDTAVYYCNKEYTFSLYDYWGQGSQVTVSS	low polyreactivity
QVQLVESGGGLVQAGGSLRLSCAASGRISDDYAMGWYRQAPGKERELVADITSGGNTYYADSVKGRFTISRDNAKNTVYLQMNSLKPEDTAVYYCNAYYVGYIRYWTNKLVDYWGQGTQVTVSS	high polyreactivity
